Each block holds one binder with its values, some of them ahead of it.
Biological target: His-ezrin WT (UniProt P15311 1-586)
Experiment: pull-down

His-ezrin WT, sequence (P15311 whole entry): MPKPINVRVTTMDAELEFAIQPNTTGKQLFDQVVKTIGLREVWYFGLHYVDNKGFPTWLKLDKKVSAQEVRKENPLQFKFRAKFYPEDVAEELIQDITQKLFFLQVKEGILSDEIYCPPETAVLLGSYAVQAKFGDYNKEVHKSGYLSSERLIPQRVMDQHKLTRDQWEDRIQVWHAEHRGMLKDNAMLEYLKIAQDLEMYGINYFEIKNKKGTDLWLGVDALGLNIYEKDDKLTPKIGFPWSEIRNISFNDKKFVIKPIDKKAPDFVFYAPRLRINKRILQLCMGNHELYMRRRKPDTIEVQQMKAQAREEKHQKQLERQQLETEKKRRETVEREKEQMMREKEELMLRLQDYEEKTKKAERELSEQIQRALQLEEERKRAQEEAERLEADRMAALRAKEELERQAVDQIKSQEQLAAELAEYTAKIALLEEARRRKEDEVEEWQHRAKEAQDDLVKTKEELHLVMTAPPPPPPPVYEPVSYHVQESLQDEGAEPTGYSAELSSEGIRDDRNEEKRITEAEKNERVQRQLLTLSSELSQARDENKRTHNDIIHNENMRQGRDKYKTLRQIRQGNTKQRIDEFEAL

- binding result: binds
B1: GST-EBP50-CT (domain or fragment)
chain: KENSREALAEAALESPRPALVRSASSDTSEELNSQDSPPKQDSTAPSSTSSSDPILDFNISLAMAKERAHQKRSSKRAPQMDWSKKNELFSNL

- binding result: binds
Binder: FGQHLRQQRMGTYGVRAAWRRLPQAFRP (domain or fragment) [GST-ICAM2-CT]

From paper PMC7333480 (Journal of Molecular Cell Biology, 2019)
